Experimental data as given in paper PMC12345223.

Target: T1, ChCpc1;ChAtf1 (Cochliobolus heterostrophus C4 (Tox1+, …, UniProt M2T2C6;M2TIN4 1-465;1-567, |))
T1 sequence 1: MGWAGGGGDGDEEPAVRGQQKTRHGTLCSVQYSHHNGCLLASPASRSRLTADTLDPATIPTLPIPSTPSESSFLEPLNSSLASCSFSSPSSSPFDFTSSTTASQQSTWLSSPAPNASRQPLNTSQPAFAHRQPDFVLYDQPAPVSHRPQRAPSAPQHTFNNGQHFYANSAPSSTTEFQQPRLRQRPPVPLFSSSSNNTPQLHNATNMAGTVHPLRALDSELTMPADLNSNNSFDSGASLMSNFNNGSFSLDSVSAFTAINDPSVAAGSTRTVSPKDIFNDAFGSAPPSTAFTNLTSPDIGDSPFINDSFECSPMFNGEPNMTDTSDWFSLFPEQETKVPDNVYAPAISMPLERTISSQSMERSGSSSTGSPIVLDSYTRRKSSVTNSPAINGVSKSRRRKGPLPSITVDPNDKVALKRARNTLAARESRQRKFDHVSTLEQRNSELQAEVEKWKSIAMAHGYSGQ
T1 sequence 2: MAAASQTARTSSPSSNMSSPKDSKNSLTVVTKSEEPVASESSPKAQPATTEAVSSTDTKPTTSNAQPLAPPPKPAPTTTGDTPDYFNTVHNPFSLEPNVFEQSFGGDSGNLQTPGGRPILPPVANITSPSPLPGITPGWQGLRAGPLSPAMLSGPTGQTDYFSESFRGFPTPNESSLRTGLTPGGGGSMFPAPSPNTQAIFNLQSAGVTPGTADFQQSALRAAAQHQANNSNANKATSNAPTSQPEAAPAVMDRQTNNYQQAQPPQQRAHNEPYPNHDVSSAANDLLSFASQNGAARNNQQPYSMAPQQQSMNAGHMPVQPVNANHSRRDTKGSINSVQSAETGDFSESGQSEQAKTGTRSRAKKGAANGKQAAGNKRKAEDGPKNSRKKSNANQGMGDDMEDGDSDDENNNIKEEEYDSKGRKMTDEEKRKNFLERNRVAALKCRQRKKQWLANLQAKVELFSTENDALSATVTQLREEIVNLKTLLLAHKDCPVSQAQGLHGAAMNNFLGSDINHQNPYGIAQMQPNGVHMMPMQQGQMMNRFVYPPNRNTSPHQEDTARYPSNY
Test: EMSA; enhanced versus ChCpc1 alone; Light Shift Chemiluminescent EMSA Kit (Beyotime), 20 min at 25°C; 6.5% polyacrylamide gel, 0.5x TBE; binding buffer, salt and pH not stated
Conditions: protein: recombinant;recombinant; tags: His (pET-32a);His (pET32a); copies: 1;1; label: biotin (on forward strand); blunt

B1: ChARG4 promoter probe (dsDNA)
DNA 1: CATTGGCGTTTGGGACTGAATTACAATGAGTAATGAAATAACTCACACCACAAAGCAGTA
DNA 2: TACTGCTTTGTGGTGTGAGTTATTTCATTACTCATTGTAATTCAGTCCCAAACGCCAATG
- binding result: binds

B2: ChATG8 promoter probe (dsDNA)
DNA 1: GGAGAGCGTGAAGGAGAGAGACGGGATGAGTCAAAGTACCCAGGTAGCCAGGTCATGGGA
DNA 2: TCCCATGACCTGGCTACCTGGGTACTTTGACTCATCCCGTCTCTCTCCTTCACGCTCTCC
- binding result: binds
